According to the domain aggregation screens of Martell et al. (2025):

Assay: soluble fraction after stress (log2 fold change); higher = more stays soluble; pooled small domains, quantitative proteomics
Conditions: stress: 75 degC
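Note: 20 min heating vs room temperature control held 20 min.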

Sequence | soluble fraction (log2)
HMIGTPLSEWQKDAPEEITRDQIAELVILKFVTVEQLALASDAQLQRIGMGGVGLRERAKLYLNRK | -1.87
HMIGVNMEKSTVEKFANELNLPIDLLLKQLESAGIKKTSGAEELLEADKSALLNYLQIEHGA | 0.725
HMIGVQEFAMTYALTRRETEITQLIIQGKSNAMIAGELFISETTVKKHVSNIFEKTGVSRREELMVRVQAE | -1.98
HMIHANGLTDRQEMILEFIRSYISENNYPPSVREIGKGVGLASSASVHNNMKKLASLGFLNWDTD | -1.93
HMIHFDHPERSILDTMLYEKKGMTAQSARNRLAAYQFQGEDVFKPVSVLSGGELSRITLAIKNAMADK | -0.36
HMIHQPNNETTRNLIAGVVKKSLSVWETRVQVDGVDVTTAKDNLAEVHINIRYRLRHNQTPASLGLRLNLG | -0.0232
HMIHSEDMDDHILGHKLVDQYLNKHIEFDNIKKAWNYHTVAIKKFGRYPHRNKILKRESTIEEIDFLKQP | 0.252
HMIHSEEIQDHIFVKQLGEVFLRNHINYENIMKSWDDHTNVIKRFRRYPHRNKILNRESTIDEISFLKE | 0.176
HMIIDTELMTRVMKFGFSQADASDLVAQHSDDLLRTAISRVEARAESKGMTPLETPAGYFRWTLQDLVRNP | -2.04
HMIIIMKKSATNSEVRKVIERAEKEGLTVQVNQLEKQQVLGLVGDTRLIQDVAFLRYEGVENVERI | -2.37
HMIILYTDEQQRIIDRLNEFIGEQPSQNEAAKLLGISAPILTNLRKGTYTGTVDKFMNKLAAYFNIKADLG | -1.3
HMIIMVNLYQIWDKEVQGLDSVGAKPEQIEARRQAIAAHFESKARQAGMSSKDIYATLDNFDTYSRQKTS | -2.26
HMIINFDAIRLTTELNKYNRHKAIPNSFFDGTFTILDVRDLYDSLSPKVQKIADTLIEQYNVDVKQ | -1.82
HMIISMKKGATPQEISHVRKLIEELGYKVHESQGSERMVFGAIGDERSKHRLTSLEAQPGVEKVIPILA | 0.0278
HMIISMKKTATKEQIAHVRELIEGMGYKAHMSVGAERVIFGAIGDERGKERLVSLEAQPGVEKVIPIL | -0.445
HMIITLNIENLKRARENAGLTQTQAAQKIGVSDGTYKNYEQGKREPNGDKIVTIANAFGVTTDYLLGR | -0.475
HMIIVMRKGATEAQVNDIVERVRAAGFGVHLSQGEERTIIGAIGGDRAVLADLNLEAAPGVERVTPIS | -0.176
HMIIYGLNPVKDFINLFPNKISTLFISKNKLSDSEMKSVVNINTVYVSDAELKRITGTTKHQSLAAEID | -1.2
HMIKILGSAYRHGLDDDDILRAWNYHIQEFFEGEDPEKIVRLGFDTHGRLLEIGGEIYPGGGEKIFHAM | -0.733
HMIKITLPDGSVKEYKKGITPAEVAQSISEGLARNVISASYNGKTIETVTPLTTDGSLVLYTWDSPEGK | 0.0404
HMIKLTVRQQEILDLIARSIDQTGFPPTRAEIAAELGFKSVNAAEEHLQALARKGVIEMVPGISRGIRLVQ | -1.48
HMIKRNPLDEIEGVGPGRKKALLHAFGSAKGVSRASVVDLVKVEGVSQALAERIHDFFHPATR | -0.299
HMIKSIRELAEVITLWKNQGKTILIAEHRLSYLMDLADRVLYMKDGQIENDFSMADFRKIPPDEISRMGLR | 0.103
HMIKVAANESNRSDVLEIVRLFRVRVVDVNPESLTIEATGAEGKIDALLGLLEHYGVIELVRSGAVAVT | -1.86
HMILESREKYLGEVLEVLVEEEKEGEYFGYSQNYLRVKFKLEEKNLINQLINIKIKSIEDDILIGEKEN | -3.46
HMILKNVTSDLANKRLDKVASILFQTYSRTQIKKWILEGRVLVNGEISNPKDHVHENDEIEINPI | -1.9

Sequence | soluble fraction (log2)
HMIMISKSFEINEDNINKRLDIFLTENLDGLSRGIVQKYISLEQITVNKESSHKDYRLKLDDFIEVKIQAH | -4
HMIMNDIQAKVLEIAETKDLGSITYYRLSKMLGVDHPYRVKYAIDKLIEKGLLTAKSDGSITKAI | -1.47
HMIMTTKVSGIMFDKFNPSAILNINGMDYLVRSGDIINGYKILSIGQETVTVQYGANVYKASVG | -4.48
HMIMVAGHLQIKKGKYYMVLELKSESGERKTKWISTGLSAKGNKRKAEAMLEEARENYQSTDA | -1.13
HMINIFKVKKAMEEIFASEWEDSPYTDQKISQILWSRGFSVSTGLVEKYRGQMGVPDANSRLNLN | -2.49
HMINIGANIRAIRKQKNIKQVDLVRLLQLEGVEITRETLVKIESGVQHIKASQLRGIRDALGTTYDELL | -2.88
HMINITALVKQLGGVDISKFNSAFKLLQQGKPLNTISNKVMADTFVALMKNSDEALNTKFRAAFKKI | -0.441
HMINKIANLSAELRMEGLPVSIRSTQAAVKIYMDLGGDDRNLLKTALMSIYVKDRYDIPKFNKVFEKLFA | -1.66
HMINKQPKDYEYFLEKWHFTQTEKHQLHNLILKLNIRYPNKDFLKITENLDNGKLVLKKLEERLSKT | -1.33
HMINNINKLPETQFIKLFANIFENSQFIAVALYKKKGDGFSDFKDLINKIMDIFENTTKEKKLKILNA | -0.381
HMINPASEKQLSFANSLIAKKEGGTETLNHYLHNRKVSSLEELDRKDVSEIINALKFAKEVT | 0.641
HMINRPVYVPLYTNLDVKDAAEIAEKLEENNIAYKLEDQGETILVNPEQKYKVRLMLAQEGLPKG | 0.0786
HMINSFDYLQAIFTELMKSQSKMTNQDAAKRLFMQGKVAVSNRDREGLRMVLAQLVTLLPKEELGGLSTVS | -1.38
HMIPESVQGIEEFLATGALKGIGKKTAAAIVHKFGKDTLRIMEEEPERLAEVSGIGEKKAAAIGEAFALH | 0.134
HMIPNPMTDRELEVLGLLASGKTYKQVARALDLSQSTVRNHLHNVYHKLNVVDRAQAVIVSRENGW | -0.379
HMIPPGTITIEGAITKVPVFLDGKQIGTVPLTKEDVEPGKYRIRVLGVGRVITIDPGEKENVLFSGEDLGL | -0.0563
HMIPTDPNGDLIKILYTSDQINELYARAKLNDVEDLFLDWTKNVLGESNFEETGPTKNEYLIPQ | -0.0775
HMIPTTELAERLGTTKVANMIMLGALIKASGIISFDDMIKNLGELLGEGKAKLIKLNKEALEVGFN | 0.139
HMIPYSDLLKLLSNDAMPKFRNKDGWAKIHALETYLASRWSYQEYGFASFTVLLETVHNAEIRNDSVRLM | -0.479
HMIQTMVVTDLKNGTIFKENGHPFIVLKYEHIKVSRGSAQVRVKMKNLITGQVLEKSWQSTAHVDDT | -3.24
HMIRMPNLIGLSVRSAEQQLVIAGLKKGIVHQVNDPRLKEVIDMQALGHKITAGSSIPKGTEVDLYIGNGT | -0.944
HMISAVDLMAARRKIEAGITNLQPGQAFTLPNKVGWVKRMTGGSYFIQGNGGYTASVRTISEAIQAAAMLL | -3.11
HMISDQENDLNLKHLFDTADQNKDGLILESELKMLMTNLEINKETYDTVMKQITPAGMDYKTFSSL | 0.293
HMISFLNFVRKEIDASQLKDSTKQNHLTTIGLLQSFKPSIEFKDLNYNFITSFEKYLYDAGYQM | 0.0114
HMISKQQRQALILDIIQKQSITSQEALLTELQRHHVMTTQTTVSRDIRALGIVRIKDVNGELSYQQLQ | -2.69
HMISKRFQIDEDNSNKRIDIFLTQSLDSISRGIVQQLILENKVEVNGGPVKRNYLIKIGDVIDVKIDL | -2.96

Sequence | soluble fraction (log2)
HMISKTFEINEDNINNRLDIFLANQFDNLSRGIVQKLIESHSVSVSGNFVEKDYKLKLGDIIDVEINLS | -1.64
HMISLNEDQKLAILNEWNQRPDDPPFIKELIELVFPDIPEEAKTGRSRYGIAIKKFLAEKSLQAKV | -0.197
HMISLPSYIREEATEVYNRLHDLGLEYTSLDVNDDSIPKGYVVRTVPEAGASVPAGQVVTVYVSLG | -0.829
HMISQLRGKVLGTDRDALVIDVGGVGFRVSATAGARALAGQSGNEARLFTEMVVREDSIDLFGF | 0.0812
HMISRKIKELRLSHDLTQKDLADYLNLTPKMVSFYELGQRVPPSDIILKLAEKFHVSTDYLLGNEDRP | -0.196
HMITDNEFLRIVSFLKQRYGIDMSQKKVIMNGRLENYLKSGGWSSFDEYMNDVEKDTSGDLEKTLVNFLTT | -1.38
HMITETIGANIKTLRDKFRMSQQDLASKMNTARPVISNWENGKTEPSSSQLLKLAKIFDTSTDKILGNV | 0.0689
HMITKEDVANKKVNLLFFGNFHKMKLPDFEWGITEMMQDRDYLYGSLTKDLYFLGLVLDRKYKI | 0.241
HMITKENYLEKIKEIKVNEFPASMRELYDFFNEATRNGTDWSAYEEGNVKYVVDAYLERLNLLYKSN | -1.01
HMITLYIHNLEEVGKRLDHYLVSNLDDHSRSQIQSWIRSGSILVNDRSVKTGYSLELNDQILINPPK | -2.51
HMITNSTEIEAMIDSLIKENPEQAEQYRNGNTKVVGWFVGQMMKASKGKANPQVVGDLLAQKLVG | 0.0621
HMIVAHEINRHLGESDQPVEIPDNRREGAVAELLKTFNNDDAFREMDDGKYEVALDGEKVREAARSLLA | 0.0479
HMIVDARNREINLGSHVRYVDTGTVGEVTDSKVENDASWVKIDKTNLWYLANKLELLNDEDFKT | 0.0789
HMIVDINDVRIDKYIADNTDYSRNLILNLIKNGDILVNDSKIKPSYKVKQGDKITINNVKTD | 0.332
HMIVKQPDIRKQELLDIGVRLYFEAGEKGVSIQQVVKQAGVATGLFYYYFSSKDAFLDEALNDYID | 0.0613
HMIVLPGEELEVHIVQEGKEDGQGVAYLDDGTMVVVEGGRPYVDSFAYVAVTRVLQTGAGRIIFAHPTR | -2.54
HMIYNSGTTDSRGEAIVGGYLVTVTDTDTKDPVANAAVTLHKDNSISIRLPNSRLLDYADQTTVTVQLV | 0.0328
HMKAEKEIEKIKFTIYNEFKRKQEENHFLPPWDGTKMLRQFVLGVVANNPKYQHVNTDILYRDLLLLYYQ | -2
HMKAFTKKELQDLVLNIFRASPTTNYNYKQLYKLIRGKDPEIKTLIIAVLLGLEKNGSILQMRPGKYKFS | 0.97
HMKALDTVLSEIPGLGPVRIKQLLKVFGSVDAIRKASLQDLQQIEGIGPKLAQTIYEYFHQP | 0.898
HMKALYNLDYEKPLSGSYYTETTARAAVPTDIRKLGLIITYKTDATTNITEQFVGSSISAWTTSGNWKSLG | -1.77
HMKAPPLTDREKEILRWVAAGLQNKEIAHKLGISLATVRNHIHNILEKLDVHSKLEAVSLAFRQGWVS | -0.356
HMKASEMKKGQTIKIDGVLYVIVDFQHVKLSKGGAVYQTKLRNLAAGGIRDIRIRAEEVLEDA | -2.97
HMKDITPASEDQLKAITDLMLKVNGEWSDAFFTFISKKFNHQISSPEQLTTFEANTIIDMLRKKAEG | -0.601
HMKDLDSLSQEAKSVYAVFSDKPIHIDDIKRKTGLDFSKLFKAVTELELAELISSGEGKMYSL | -0.0075
